The assay has as its target human LRRC33-proTGFβ1 complex (human) (UniProt Q86YC3). The experiment in a line: Octet, antibody immobilized. A general note: BLI is a label-free optical method that tracks binding on a fibre tip over time.

human LRRC33-proTGFβ1 complex (human), sequence (Q86YC3 19-650 limits assumed, chain 1 of 2): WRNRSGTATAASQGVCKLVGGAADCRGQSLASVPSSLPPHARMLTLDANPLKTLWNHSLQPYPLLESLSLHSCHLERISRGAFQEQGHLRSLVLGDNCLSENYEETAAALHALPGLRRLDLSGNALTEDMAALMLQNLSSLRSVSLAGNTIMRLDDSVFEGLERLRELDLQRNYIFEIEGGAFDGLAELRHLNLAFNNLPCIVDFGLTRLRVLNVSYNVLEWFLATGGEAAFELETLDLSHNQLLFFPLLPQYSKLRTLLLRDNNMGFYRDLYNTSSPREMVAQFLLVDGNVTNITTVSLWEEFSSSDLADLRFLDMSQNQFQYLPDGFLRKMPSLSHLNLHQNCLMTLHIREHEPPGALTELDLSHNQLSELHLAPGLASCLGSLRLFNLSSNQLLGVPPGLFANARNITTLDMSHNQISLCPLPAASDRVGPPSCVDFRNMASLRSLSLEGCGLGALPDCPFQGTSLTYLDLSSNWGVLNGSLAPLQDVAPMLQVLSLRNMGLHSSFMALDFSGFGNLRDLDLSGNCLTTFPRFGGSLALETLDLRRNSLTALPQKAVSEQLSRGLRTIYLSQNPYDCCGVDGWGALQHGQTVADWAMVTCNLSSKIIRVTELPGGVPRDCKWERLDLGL
human LRRC33-proTGFβ1 complex (human), sequence (chain, as listed by the source limits assumed, chain 2 of 2): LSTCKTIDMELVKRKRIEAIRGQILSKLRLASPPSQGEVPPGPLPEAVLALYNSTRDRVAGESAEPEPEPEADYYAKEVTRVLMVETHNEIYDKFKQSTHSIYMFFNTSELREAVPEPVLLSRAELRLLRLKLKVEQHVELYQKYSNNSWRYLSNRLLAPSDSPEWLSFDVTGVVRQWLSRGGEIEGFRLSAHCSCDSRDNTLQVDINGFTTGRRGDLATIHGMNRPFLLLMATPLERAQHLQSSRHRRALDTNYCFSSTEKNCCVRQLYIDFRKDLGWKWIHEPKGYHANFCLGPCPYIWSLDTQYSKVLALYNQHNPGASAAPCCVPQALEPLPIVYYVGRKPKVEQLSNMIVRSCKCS

B1: SR-AB22 (antibody, IgG1, V domains shown)
VH: QVQLVESGGGVVQPGRSLRLSCAASGFTFRSYVMHWVRQAPGKGLEWVAVISHEGSLKYYADSVKGRFTISRDNSKNTLYLQMNSLRAEDTAVYYCAVPRIAARRGGFGYWGQGTLVTVSS
VL: NFMLTQPHSVSESPGKTVTISCTRSSGNIDNNYVQWYQQRPGSSPTTVIYEDNQRPSGVPDRFSGSIDSSSNSASLTISGLKTEDEADYYCQSYDSDNQGVVFGGGTKLTVL
B1 came in with a Response (nm) of 0.133 nm.

The record behind these values is US20220064276A1.
